Test results published in paper PMC4882459.

Molecular target: ES-62 (Acanthocheilonema viteae)
Experiment: SPR; Biacore 3000; 300 RU of ES-62 amine-coupled to a CM5 chip; CRP 10 ug/ml to 20 ng/ml flowed at 10 ul/min; HBS with 1 mM CaCl2 and 0.005% P20, pH 7.4; Langmuir 1:1 analysis, ka and kd calculated separately; avidity

B1: C-reactive protein (native, human) (natural protein)
chain: QTDMSRKAFVFPKESDTSYVSLKAPLTKPLKAFTVCLHFYTELSSTRGYSIFSYATKRQDNEILIFWSKDIGYSFTVGGSEILFEVPEVTVAPVHICTSWESASGIVEFWVDGKPRVRKSLKKGYTVGAEASIILGQEQDSFGGNFEGSQSLVGDIGNVNMWDFVLSPDEINTIYLGGPFSPNVLNWRALKYEVQGEVFTKPQLWP
Kd: 0.1 nM
koff: 0.0006 to 0.0014 s⁻¹
